Results as given in patent publication US20230265184A1.
Values belong to the binder of their own block, whether it stands above or below them.

Biological target: m19-humBBz CAR (mouse; human) (UniProt P01731)
Test: cell-based or functional assay

NF-κB signaling in NF-κB/293/GFP-Luc reporter cells, GFP %: 13.4%
NF-κB signaling in NF-κB/293/GFP-Luc reporter cells, GFP MFI: 1690 MFI
B1: TRAF1 DN (184-417aa) (protein, UniProt Q13077 184-416, looked up, not shown: small tags and cut ends; large carriers)
chain: EKLLAELEGKLRVFENIVAVLNKEVEASHLALATSIHQSQLDRERILSLEQRVVELQQTLAQKDQALGKLEQSLRLMEEASFDGTFLWKITNVTRRCHESACGRTVSLFSPAFYTAKYGYKLCLRLYLNGDGTGKRTHLSLFIVIMRGEYDALLPWPFRNKVTFMLLDQNNREHAIDAFRPDLSSASFQRPQSETNVASGCPLFFPLSKLQSPKHAYVKDDTMFLKCIVETST

NF-κB signaling in NF-κB/293/GFP-Luc reporter cells, GFP %: 30.8%
NF-κB signaling in NF-κB/293/GFP-Luc reporter cells, GFP MFI: 6060 MFI
B2: TRAF3 DN (382-568aa) (protein, UniProt Q13114 382-568, looked up, not shown: small tags and cut ends; large carriers)
chain: ESQLSRHDQMLSVHDIRLADMDLRFQVLETASYNGVLIWKIRDYKRRKQEAVMGKTLSLYSQPFYTGYFGYKMCARVYLNGDGMGKGTHLSLFFVIMRGEYDALLPWPFKQKVTLMLMDQGSSRRHLGDAFKPDPNSSSFKKPTGEMNIASGCPVFVAQTVLENGTYIKDDTIFIKVIVDTSDLPDP

NF-κB signaling in NF-κB/293/GFP-Luc reporter cells, GFP MFI: 14300 MFI
NF-κB signaling in NF-κB/293/GFP-Luc reporter cells, GFP+%: 63.5%
B3: TRAF2 DN (87-501aa) (protein, UniProt Q12933 87-501, looked up, not shown: small tags and cut ends; large carriers)
chain: SSSAFPDNAARREVESLPAVCPSDGCTWKGTLKEYESCHEGRCPLMLTECPACKGLVRLGEKERHLEHECPERSLSCRHCRAPCCGADVKAHHEVCPKFPLTCDGCGKKKIPREKFQDHVKTCGKCRVPCRFHAIGCLETVEGEKQQEHEVQWLREHLAMLLSSVLEAKPLLGDQSHAGSELLQRCESLEKKTATFENIVCVLNREVERVAMTAEACSRQHRLDQDKIEALSSKVQQLERSIGLKDLAMADLEQKVLEMEASTYDGVFIWKISDFARKRQEAVAGRIPAIFSPAFYTSRYGYKMCLRIYLNGDGTGRGTHLSLFFVVMKGPNDALLRWPFNQKVTLMLLDQNNREHVIDAFRPDVTSSSFQRPVNDMNIASGCPLFCPVSKMEAKNSYVRDDAIFIKAIVDLTGL
